# IntAct's records for PubMed 31515488
# B1: WASH complex subunit 3 (Homo sapiens), Q9Y3C0 (parent)
# chain: MDEDGLPLMGSGIDLTKVPAIQQKRTVAFLNQFVVHTVQFLNRFSTVCEEKLADLSLRIQQIETTLNILDAKLSSIPGLDDVTVEVSPLNVTSVTNGAHPEATSEQPQQNSTQDSGLQESEVSAENILTVAKDPRYARYLKMVQVGVPVMAIRNKMISEGLDPDLLERPDAPVPDGESEKTVEESSDSESSFSD
# partner: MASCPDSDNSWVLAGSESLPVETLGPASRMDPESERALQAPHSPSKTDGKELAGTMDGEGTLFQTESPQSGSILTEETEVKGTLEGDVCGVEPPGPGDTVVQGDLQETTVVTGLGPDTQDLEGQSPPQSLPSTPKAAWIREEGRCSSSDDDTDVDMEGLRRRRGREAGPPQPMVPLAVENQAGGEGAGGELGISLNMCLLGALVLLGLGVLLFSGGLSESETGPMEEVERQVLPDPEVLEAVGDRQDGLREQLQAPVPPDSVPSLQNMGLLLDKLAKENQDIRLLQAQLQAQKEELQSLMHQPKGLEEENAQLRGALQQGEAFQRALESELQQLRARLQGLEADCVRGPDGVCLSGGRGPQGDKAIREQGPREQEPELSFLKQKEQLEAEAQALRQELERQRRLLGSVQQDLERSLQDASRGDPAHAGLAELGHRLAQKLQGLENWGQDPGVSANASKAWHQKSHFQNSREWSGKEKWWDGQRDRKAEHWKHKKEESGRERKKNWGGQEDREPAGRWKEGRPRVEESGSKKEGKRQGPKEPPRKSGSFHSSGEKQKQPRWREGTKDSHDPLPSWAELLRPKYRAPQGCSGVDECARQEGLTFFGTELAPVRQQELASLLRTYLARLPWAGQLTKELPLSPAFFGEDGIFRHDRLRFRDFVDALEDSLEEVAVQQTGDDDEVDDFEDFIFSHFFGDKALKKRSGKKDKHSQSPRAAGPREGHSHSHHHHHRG
# B2: Centrin-1 (Homo sapiens), Q12798 (parent)
# chain: MASGFKKPSAASTGQKRKVAPKPELTEDQKQEVREAFDLFDVDGSGTIDAKELKVAMRALGFEPRKEEMKKMISEVDREGTGKISFNDFLAVMTQKMSEKDTKEEILKAFRLFDDDETGKISFKNLKRVANELGENLTDEELQEMIDEADRDGDGEVNEEEFLRIMKKTSLY
# partner: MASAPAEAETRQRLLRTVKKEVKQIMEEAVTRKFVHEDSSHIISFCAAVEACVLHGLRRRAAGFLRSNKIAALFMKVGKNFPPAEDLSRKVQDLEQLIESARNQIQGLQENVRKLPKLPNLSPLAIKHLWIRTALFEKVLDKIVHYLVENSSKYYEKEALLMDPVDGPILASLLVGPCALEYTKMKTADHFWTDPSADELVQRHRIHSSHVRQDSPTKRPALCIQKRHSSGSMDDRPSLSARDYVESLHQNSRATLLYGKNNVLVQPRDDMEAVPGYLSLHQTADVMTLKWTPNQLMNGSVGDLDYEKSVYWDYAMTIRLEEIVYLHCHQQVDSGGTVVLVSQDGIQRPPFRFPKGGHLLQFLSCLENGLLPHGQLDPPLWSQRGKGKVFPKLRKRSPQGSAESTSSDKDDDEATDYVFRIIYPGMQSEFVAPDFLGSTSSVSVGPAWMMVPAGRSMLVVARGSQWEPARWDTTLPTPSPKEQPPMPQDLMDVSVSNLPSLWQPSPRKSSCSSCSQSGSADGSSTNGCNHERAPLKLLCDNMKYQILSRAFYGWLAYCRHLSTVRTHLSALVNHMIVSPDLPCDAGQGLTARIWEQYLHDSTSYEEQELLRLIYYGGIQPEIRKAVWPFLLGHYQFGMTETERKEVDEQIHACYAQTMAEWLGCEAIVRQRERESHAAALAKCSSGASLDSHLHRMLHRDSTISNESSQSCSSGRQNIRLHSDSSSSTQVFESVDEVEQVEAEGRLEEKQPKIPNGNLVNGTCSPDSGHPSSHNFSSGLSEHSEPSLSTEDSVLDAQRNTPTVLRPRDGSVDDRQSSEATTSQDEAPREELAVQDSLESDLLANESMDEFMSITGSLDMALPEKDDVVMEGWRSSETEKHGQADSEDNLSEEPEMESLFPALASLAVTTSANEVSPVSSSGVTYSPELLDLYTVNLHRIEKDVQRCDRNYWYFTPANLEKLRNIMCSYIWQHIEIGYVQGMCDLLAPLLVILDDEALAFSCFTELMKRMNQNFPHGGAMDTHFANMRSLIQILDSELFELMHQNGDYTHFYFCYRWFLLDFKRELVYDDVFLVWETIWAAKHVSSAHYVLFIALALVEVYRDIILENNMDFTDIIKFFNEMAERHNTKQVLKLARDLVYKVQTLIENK
# B3: SKA complex subunit 1 (Homo sapiens), Q96BD8 (parent)
# chain: MASSDLEQLCSHVNEKIGNIKKTLSLRNCGQEPTLKTVLNKIGDEIIVINELLNKLELEIQYQEQTNNSLKELCESLEEDYKDIEHLKENVPSHLPQVTVTQSCVKGSDLDPEEPIKVEEPEPVKKPPKEQRSIKEMPFITCDEFNGVPSYMKSRLTYNQINDVIKEINKAVISKYKILHQPKKSMNSVTRNLYHRFIDEETKDTKGRYFIVEADIKEFTTLKADKKFHVLLNILRHCRRLSEVRGGGLTRYVIT
# partner: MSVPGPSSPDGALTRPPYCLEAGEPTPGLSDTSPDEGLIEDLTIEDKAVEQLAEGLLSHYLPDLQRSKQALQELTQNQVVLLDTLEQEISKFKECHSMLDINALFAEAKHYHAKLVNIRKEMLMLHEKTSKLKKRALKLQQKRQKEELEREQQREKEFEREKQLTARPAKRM
# B4: Cyclin-D1-binding protein 1 (Homo sapiens), O95273 (parent)
# chain: MASATAPAAAVPTLASPLEQLRHLAEELRLLLPRVRVGEAQETTEEFNREMFWRRLNEAAVTVSREATTLTIVFSQLPLPSPQETQKFCEQVHAAIKAFIAVYYLLPKDQGITLRKLVRGATLDIVDGMAQLMEVLSVTPTQSPENNDLISYNSVWVACQQMPQIPRDNKAAALLMLTKNVDFVKDAHEEMEQAVEECDPYSGLLNDTEENNSDNHNHEDDVLGFPSNQDLYWSEDDQELIIPCLALVRASKACLKKIRMLVAENGKKDQVAQLDDIVDISDEISPSVDDLALSIYPPMCHLTVRINSAKLVSVLKKALEITKASHVTPQPEDSWIPLLINAIDHCMNRIKELTQSELEL
# partner: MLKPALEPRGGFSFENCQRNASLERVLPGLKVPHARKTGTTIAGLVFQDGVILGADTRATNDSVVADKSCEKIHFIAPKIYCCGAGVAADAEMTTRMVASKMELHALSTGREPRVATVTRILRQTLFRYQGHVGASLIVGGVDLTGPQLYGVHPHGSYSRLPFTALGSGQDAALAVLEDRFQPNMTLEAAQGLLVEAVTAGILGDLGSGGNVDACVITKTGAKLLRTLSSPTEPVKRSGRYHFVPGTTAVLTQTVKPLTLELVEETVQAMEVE
# Variants of: B1
# Details: with pbip1_human PBXIP1, Q96AQ6
row,Variant,effect of a mutation on the interaction
1,F44L,with no effect

# Variants of: B2
# Details: with sgsm1_human SGSM1, Q2NKQ1
row,Variant,effect of a mutation on the interaction
1,M72T,with no effect

# Variants of: B3
# Details: with bl1s6_human BLOC1S6, Q9UL45
row,Variant,effect of a mutation on the interaction
1,V230M,with no effect
2,H86R,with no effect

# Variants of: B4
# Details: with psb10_human PSMB10, P40306
row,Variant,effect of a mutation on the interaction
1,I277T,disrupting interaction strength
